Source: the supplement of paper PMC12338614
± gives the uncertainty stated by the source.

B1: library; numbered along this chain (parent)
chain: MEVVDPQQLGMFTEGELMSVGMDTFIHRIDSTEVIYQPRRKRAKLIGKYLMGDLLGEGSYGKVKEVLDSETLCRRAVKILKKKKLRRIPNGEANVKKEIQLLRRLRHKNVIQLVDVLYNEEKQKMYMVMEYCVCGMQEMLDSVPEKRFPVCQAHGYFCQLIDGLEYLHSQGIVHKDIKPGNLLLTTGGTLKISDLGVAEALHPFAADDTCRTSQGSPAFQPPEIANGLDTFSGFKVDIWSAGVTLYNITTGLYPFEGDNIYKLFENIGKGSYAIPGDCGPPLSDLLKGMLEYEPAKRFSIRQIRQHSWFRKKHPPAEAPVPIPPSPDTKDRWRSMTVVPYLEDLHGADEDEDLFDIEDDIIYTQDFTVPGQVPEEEASHNGQRRGLPKAVCMNGTEAAQLSTKSRAEGRAPNPARKACSASSKIRRLSACKQQ

Variants of: B1
Experiment: STK11 functional score (HeLa growth suppression), rescaled enrichment; synonymous median = 1, nonsense median = 0 (normalised score)
Details: with HeLa; variant type: missense
Procedure: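 Deep mutational scan (TileSeq/POPCode codon randomisation) of full-length codon-optimised STK11 cDNA integrated at a Bxb1 landing pad (AAVS1) in HeLa cells. Restoring functional STK11 suppresses HeLa proliferation. Variant frequencies were measured by NGS before and after about two weeks of growth. The error-corrected enrichment log-ratio was rescaled so that synonymous median = 1 and nonsense median = 0, scores above 1 were compressed, and codon-level and three biological replicate scores were combined; error is the bootstrapped standard error. Scale: synonymous median = 1, nonsense median = 0; below 0.5 = damaging.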

E65F and E376P are within error of each other in STK11 functional score: 1.22 ± 0.15 for the first, 1.31 ± 0.15 for the second.

First: E376H
Second: E376R
The STK11 functional score of the first is lower: 0.914 ± 0.14 for the first, 1.39 ± 0.16 for the second.

D348W and D348T are within error of each other in STK11 functional score: 1.58 ± 0.25 for the first, 1.57 ± 0.27 for the second.

T32V and Q382R are within error of each other in STK11 functional score: 1.41 ± 0.54 for the first, 1.48 ± 0.17 for the second.

Q382H and R103S are within error of each other in STK11 functional score: 1.15 ± 0.35 for the first, 1.02 ± 0.11 for the second.

First: R103E
Second: R103Y
The STK11 functional score of the first is higher: 1.68 ± 0.18 for the first, 1.15 ± 0.18 for the second.

Going from P217S to R304V, the STK11 functional score rises from 0.334 ± 0.13 to 1.51 ± 0.27.

First: Q159G
Second: N247V
The STK11 functional score of the first is higher: 1.1 ± 0.15 for the first, 0.824 ± 0.1 for the second.

First: L228A
Second: R74L
The STK11 functional score of the first is higher: 1.66 ± 0.14 for the first, 1.42 ± 0.094 for the second.

Compared with F298A, L72H is lower in STK11 functional score: 1.55 ± 0.15 for the first, 0.0684 ± 0.095 for the second.

Going from R86V to R86W, the STK11 functional score falls from 1.4 ± 0.26 to 0.178 ± 0.085.

Compared with N90I, F25I is higher in STK11 functional score: 0.781 ± 0.2 for the first, 1.69 ± 0.52 for the second.

A205Q and A205R are within error of each other in STK11 functional score: 1.33 ± 0.29 for the first, 1.23 ± 0.32 for the second.

L67D and L67V are within error of each other in STK11 functional score: 0.672 ± 0.33 for the first, 0.884 ± 0.11 for the second.

Compared with T24S, G58P is lower in STK11 functional score: 1.15 ± 0.41 for the first, 0.174 ± 0.093 for the second.

Going from G58E to S31I, the STK11 functional score rises from 1.04 ± 0.23 to 1.41 ± 0.12.

I248L and I192Y are within error of each other in STK11 functional score: 1.05 ± 0.18 for the first, 1.11 ± 0.19 for the second.

Going from M18P to M18L, the STK11 functional score falls from 1.69 ± 0.13 to 1.08 ± 0.34.

K78P and K78V are within error of each other in STK11 functional score: -0.226 ± 0.12 for the first, -0.0951 ± 0.078 for the second.

N94G and N94L are within error of each other in STK11 functional score: 0.953 ± 0.18 for the first, 0.89 ± 0.17 for the second.

Going from K388W to I161Y, the STK11 functional score falls from 1.5 ± 0.15 to 0.129 ± 0.091.

N393K and N393I are within error of each other in STK11 functional score: 0.96 ± 0.51 for the first, 1.39 ± 0.41 for the second.

Compared with N393V, N393T is higher in STK11 functional score: 0.689 ± 0.33 for the first, 1.48 ± 0.36 for the second.

Compared with Y272S, E357I is higher in STK11 functional score: 0.837 ± 0.15 for the first, 1.56 ± 0.26 for the second.

E357Y and E357C are within error of each other in STK11 functional score: 1.39 ± 0.26 for the first, 1.36 ± 0.37 for the second.

E130I and E130F are within error of each other in STK11 functional score: 0.376 ± 0.28 for the first, 0.993 ± 0.35 for the second.

E375K and S193N are within error of each other in STK11 functional score: 1.56 ± 0.51 for the first, 1.61 ± 0.2 for the second.

V243R and D358P are within error of each other in STK11 functional score: 0.16 ± 0.099 for the first, 0.725 ± 0.8 for the second.

H379T and H379I are within error of each other in STK11 functional score: 1.31 ± 0.18 for the first, 1.53 ± 0.16 for the second.

H379M and G47A are within error of each other in STK11 functional score: 1.52 ± 0.15 for the first, 1.4 ± 0.58 for the second.

K175L and L140K are within error of each other in STK11 functional score: 1.11 ± 0.18 for the first, 1.06 ± 0.089 for the second.

Going from L140R to L285Y, the STK11 functional score falls from 0.437 ± 0.11 to -0.477 ± 0.072.

Going from L285H to M139P, the STK11 functional score rises from -0.443 ± 0.1 to 0.179 ± 0.18.

Compared with Q214M, Q214S is lower in STK11 functional score: 1.66 ± 0.2 for the first, 0.787 ± 0.1 for the second.

Going from S378Q to S378K, the STK11 functional score rises from 0.786 ± 0.15 to 1.6 ± 0.28.

S378D and E145P are within error of each other in STK11 functional score: 1.5 ± 0.17 for the first, 1.36 ± 0.4 for the second.

E145R and D68G are within error of each other in STK11 functional score: 1.21 ± 0.43 for the first, 1.08 ± 0.45 for the second.

V368F and S19F are within error of each other in STK11 functional score: 0.859 ± 0.25 for the first, 0.945 ± 0.12 for the second.

Going from K124Q to K124D, the STK11 functional score falls from 1.61 ± 0.18 to 0.919 ± 0.5.

Compared with G346R, M129W is lower in STK11 functional score: 1.56 ± 0.26 for the first, 0.743 ± 0.079 for the second.

E223H and Q399P are within error of each other in STK11 functional score: 1.18 ± 0.17 for the first, 1.35 ± 0.52 for the second.

Q399Y and I238C are within error of each other in STK11 functional score: 1.42 ± 0.2 for the first, 1.39 ± 0.33 for the second.

K108T and K108Q are within error of each other in STK11 functional score: 1.33 ± 0.28 for the first, 1.39 ± 0.12 for the second.

K108N and D115P are within error of each other in STK11 functional score: 1.29 ± 0.46 for the first, 0.396 ± 0.48 for the second.

K84P and R426D are within error of each other in STK11 functional score: 1.52 ± 0.45 for the first, 1.42 ± 0.27 for the second.

First: M51Y
Second: H168I
The STK11 functional score of the first is higher: 1.62 ± 0.27 for the first, 0.159 ± 0.098 for the second.

H168S and H168A are within error of each other in STK11 functional score: 0.83 ± 0.3 for the first, 1.25 ± 0.34 for the second.

D284W and K82E are within error of each other in STK11 functional score: 0.576 ± 0.1 for the first, 1.36 ± 0.75 for the second.

K262A and L45N are within error of each other in STK11 functional score: 1.23 ± 0.36 for the first, 0.985 ± 0.86 for the second.

V337Y and V337G are within error of each other in STK11 functional score: 0.9 ± 0.57 for the first, 1.13 ± 0.34 for the second.

V337D and A406N are within error of each other in STK11 functional score: 1.2 ± 0.39 for the first, 1.58 ± 0.32 for the second.

Going from Q170G to Y166D, the STK11 functional score falls from 1.37 ± 0.37 to -0.0245 ± 0.5.

Y246A and S404Y are within error of each other in STK11 functional score: 1.06 ± 0.1 for the first, 0.966 ± 0.14 for the second.

M392R and M392L are within error of each other in STK11 functional score: 0.973 ± 0.31 for the first, 1.57 ± 0.29 for the second.

T186A and T186L are within error of each other in STK11 functional score: 1.16 ± 0.25 for the first, 1.54 ± 0.17 for the second.

T186W and T186R are within error of each other in STK11 functional score: 0.861 ± 0.12 for the first, 1.11 ± 0.36 for the second.

A414L and A414W are within error of each other in STK11 functional score: 1.16 ± 0.34 for the first, 1.63 ± 0.15 for the second.

L17P and L17W are within error of each other in STK11 functional score: 1.6 ± 0.25 for the first, 1.56 ± 0.24 for the second.

R383C and H27V are within error of each other in STK11 functional score: 1.22 ± 0.12 for the first, 1.05 ± 0.12 for the second.

F231E and F231I are within error of each other in STK11 functional score: 1.24 ± 0.3 for the first, 1.62 ± 0.17 for the second.

Going from T230E to H306P, the STK11 functional score falls from 1.65 ± 0.17 to 0.114 ± 0.26.

Compared with D229G, G163S is lower in STK11 functional score: 1.03 ± 0.24 for the first, 0.402 ± 0.13 for the second.

Compared with T363R, T363F is lower in STK11 functional score: 1.14 ± 0.24 for the first, 0.261 ± 0.1 for the second.

P326A and T336D are within error of each other in STK11 functional score: 0.8 ± 0.72 for the first, 0.148 ± 0.11 for the second.

Going from P314L to P314W, the STK11 functional score rises from 1.21 ± 0.15 to 1.6 ± 0.17.

G279V and G279E are within error of each other in STK11 functional score: 0.88 ± 0.32 for the first, 0.538 ± 0.088 for the second.

G279Y and I356S are within error of each other in STK11 functional score: 1.43 ± 0.33 for the first, 0.889 ± 0.32 for the second.

P413D and P413I are within error of each other in STK11 functional score: 1.6 ± 0.33 for the first, 1.56 ± 0.28 for the second.

Compared with L160A, A76H is lower in STK11 functional score: 1.07 ± 0.18 for the first, 0.362 ± 0.17 for the second.

Compared with A76Y, A76R is lower in STK11 functional score: 0.13 ± 0.083 for the first, -0.417 ± 0.081 for the second.

Y49W and Y49S are within error of each other in STK11 functional score: 1.01 ± 0.096 for the first, 1 ± 0.28 for the second.

G408A and M22S are within error of each other in STK11 functional score: 1.61 ± 0.34 for the first, 1.68 ± 0.34 for the second.

M22R and K287D are within error of each other in STK11 functional score: 1.65 ± 0.38 for the first, 1.27 ± 0.18 for the second.

Compared with P254W, R87I is higher in STK11 functional score: 0.882 ± 0.1 for the first, 1.45 ± 0.17 for the second.

Going from R87A to G61Q, the STK11 functional score rises from 0.186 ± 0.13 to 0.913 ± 0.41.

G61R and G61L are within error of each other in STK11 functional score: 0.216 ± 0.14 for the first, 0.588 ± 0.27 for the second.

First: P221L
Second: V114W
The STK11 functional score of the first is lower: 0.159 ± 0.17 for the first, 0.805 ± 0.081 for the second.

Going from R211M to I79G, the STK11 functional score falls from 1.42 ± 0.11 to 0.345 ± 0.22.

P315T and T212M are within error of each other in STK11 functional score: 1.2 ± 0.42 for the first, 0.927 ± 0.094 for the second.

Going from S216P to S216D, the STK11 functional score falls from 0.894 ± 0.18 to 0.167 ± 0.37.

First: K178L
Second: K178F
The STK11 functional score of the first is higher: 0.63 ± 0.1 for the first, 0.35 ± 0.048 for the second.

L85G and C391T are within error of each other in STK11 functional score: 0.21 ± 0.094 for the first, 0.912 ± 0.71 for the second.

M127I and M127G are within error of each other in STK11 functional score: 0.605 ± 0.22 for the first, 0.516 ± 0.14 for the second.

R75S showed an STK11 functional score of 0.619 ± 0.16.
